Values of other authors, collected in article PMC7962812.

Molecular target: Bax (Homo sapiens) (UniProt Q07812)
Sequence (Q07812 whole entry): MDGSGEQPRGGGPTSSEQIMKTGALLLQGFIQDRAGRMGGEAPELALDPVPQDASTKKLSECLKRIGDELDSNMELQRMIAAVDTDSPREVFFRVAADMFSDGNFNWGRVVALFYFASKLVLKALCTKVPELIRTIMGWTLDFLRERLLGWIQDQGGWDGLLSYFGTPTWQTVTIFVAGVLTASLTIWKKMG

Bcl-2, sequence (P10415 whole entry): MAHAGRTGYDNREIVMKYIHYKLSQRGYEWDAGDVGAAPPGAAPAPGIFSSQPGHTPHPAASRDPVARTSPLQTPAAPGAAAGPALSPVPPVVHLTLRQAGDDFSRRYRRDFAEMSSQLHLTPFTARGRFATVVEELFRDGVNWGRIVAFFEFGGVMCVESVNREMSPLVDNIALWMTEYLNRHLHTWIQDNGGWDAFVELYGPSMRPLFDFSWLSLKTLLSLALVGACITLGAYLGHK

Kd: 35.8 nM
Substance: Bcl-2 (from UniProt P10415)
